{
  "source": "patent US20030157712A1",
  "about": "“Methods for determining cell responses through EphB receptors” (priority 1997, published 2003)",
  "key": {"[1]": {"system": "P19 cells", "assay": "Cell adhesion assay (P19)", "assay_type": "cell-based, murine", "details": "fibronectin coated dishes, 90 min", "procedure": "Cell adhesion assay. Six well plates (Falcon) were coated with thin layers of Matrigel or with 0.5 μg cm^2 fibronectin (29). Growth medium was replaced 48 h before harvest with binding medium, either DMEM (HRMEC) or ∝-MEM (P19) containing 1% bovine albumin. Cells were recovered by trypsinization (HRMEC) or vigorous tituration (P19) and washed three times with binding medium and plated at 1×10^5 cells per well. Ligands were added coincident with plating at concentrations indicated above. After 90 min, unattached cells were dislodged by applying 4 brisk slaps of the plate on a horizontal surface, and the attached cell layer was carefully washed once with PBS containing calcium and magnesium to collect the remaining unattached cells. Attached cells were collected after incubation in Dispase (Collaborative Biomedical Products). Separate fractions were recovered by centrifugation, washed once and trypan blue excluding cells counted visually using a hemocytomer. The ratio of attached to total number of cells recovered were calculated for each of three wells. Data are expressed as mean+/−SEM and are representative of three independent experiments."}, "[2]": {"system": "human renal microvascular endothelial cells", "assay": "Solid phase cell attachment assay (HRMEC)", "assay_type": "cell-based", "procedure": "Solid phase cell attachment assays. Forty-eight-well plates (Falcon) were coated with a layer of nitrocellulose (Schleicher & Schuell) and allowed to air dry as described (47). Coated wells were incubated overnight at 4° C. with PBS containing matrix proteins at the indicated concentrations alone (no addition, NA) or in combination with dimeric EphrinB1/Fc. Two hours prior to assay, wells were washed twice then blocked at 37° C. with 1% BSA. Serum starved cells were harvested in 2 mM EDTA in PBS (HEK293) or recovered by trypsinization (HRMEC), washed twice in serum free medium containing 1% BSA, then plated at a density of 0.7-1×10^5 cells per well. After incubation at 37° C. for 1 hour (or as specified), unattached cells were dislodged by 5 brisk slaps of the plate on a horizontal surface. Wells were gently washed with PBS until cells were not adherent to albumin-coated wells. Adherent cells were fixed with 2% glutaraldehyde, stained with 0.5% crystal violet (in EtOH), and quantified by OD reading at 570 nm. In experiments using competitive peptides or blocking antibodies, cells were preincubated with the indicated peptides (100 μM) or antibodies (10 μg/ml) for 15 min at RT before plating. Results representative of three independent experiments are given as OD values and represent the mean of duplicate or triplicate wells±SEM.\nTo determine if this ephrin-B1 surface density effect was mediated through integrins, a defined RGD peptide, GRGDSPK (SEQ ID NO:3), was applied to the surfaces in the absence and presence of ephrin-B1/Fc, or IgG1. Attachment assays of serum-starved microvascular endothelial cells to GRGDSPK (SEQ ID NO:3)-coated 48-well-plates were performed as described herein. Cells were preincubated for 15 min at 22° C. with blocking peptides (100 uM) or anti-integrin antibodies (10 ug/ml) before plating. Similar results were obtained using fibrinogen (1 ug/cm^2). HEK293 cells were transiently transfected with pSRα-EphB1 and attachment assays were performed after 48 hours as described herein."}, "[3]": {"molecular_target": "T1, EphB1 (Homo sapiens, UniProt P54762)", "T1 construct": "Ligand stimulation and immunoprecipitation of endogenous EphB receptors; endogenous in cells; host or cells: HRMEC (human); P19 (murine teratocarcinoma) in part of the results", "T1 sequence (P54762 18-984)": "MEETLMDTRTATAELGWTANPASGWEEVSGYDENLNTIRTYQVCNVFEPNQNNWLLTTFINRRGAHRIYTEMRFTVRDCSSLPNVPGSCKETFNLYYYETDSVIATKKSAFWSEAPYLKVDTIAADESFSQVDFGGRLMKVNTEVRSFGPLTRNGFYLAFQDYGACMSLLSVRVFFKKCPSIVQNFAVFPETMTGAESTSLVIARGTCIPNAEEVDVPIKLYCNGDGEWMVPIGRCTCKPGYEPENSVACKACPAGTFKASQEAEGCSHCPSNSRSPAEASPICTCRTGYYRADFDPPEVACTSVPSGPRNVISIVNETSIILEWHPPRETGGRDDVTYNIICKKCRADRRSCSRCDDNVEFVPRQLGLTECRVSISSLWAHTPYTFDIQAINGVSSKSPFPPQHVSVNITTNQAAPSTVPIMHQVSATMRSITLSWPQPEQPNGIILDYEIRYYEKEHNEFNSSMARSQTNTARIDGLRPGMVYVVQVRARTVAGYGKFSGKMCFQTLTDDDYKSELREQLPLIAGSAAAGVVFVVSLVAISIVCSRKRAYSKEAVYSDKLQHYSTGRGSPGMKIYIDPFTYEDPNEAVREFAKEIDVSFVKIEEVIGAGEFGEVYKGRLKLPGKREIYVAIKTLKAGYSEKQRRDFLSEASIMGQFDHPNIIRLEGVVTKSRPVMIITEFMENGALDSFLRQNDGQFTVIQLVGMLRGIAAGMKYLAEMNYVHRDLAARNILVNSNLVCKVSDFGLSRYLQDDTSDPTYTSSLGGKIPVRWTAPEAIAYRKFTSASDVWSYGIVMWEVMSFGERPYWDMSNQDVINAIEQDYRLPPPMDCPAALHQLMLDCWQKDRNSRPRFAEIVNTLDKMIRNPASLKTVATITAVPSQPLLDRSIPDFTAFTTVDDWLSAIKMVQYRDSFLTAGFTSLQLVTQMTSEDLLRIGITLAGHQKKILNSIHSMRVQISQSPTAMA", "assay": "EphB1 immunoprecipitation and phosphotyrosine immunoblot", "assay_type": "cell-based", "details": "endothelial cells on adsorbed ligand"}, "[4]": {"details": "fibrinogen-coated nitrocellulose surfaces"}},
  "data": [
    {"molecule": "ephrin-B1/Fc dimers: disulfide-linked immunoglobulin Fc fusion form of ephrin-B1 (protein, left off: a dimerising Fc or GST) LAKNLEPVSWSSLNPKFLSGKGLVIYPKIGDKLDIICPRAEAGRPYEYYKLYLVRPEQAAACSTVLDPNVLVTCNRPEQEIRFTIKFQEFSPNYMGLEFKKHHDYYITSTSNGSLEGLENREGGVCRTRTMKIIMKVGQDPNAVTPEQLTTSRPSKEADNTVKMATQAPGSRGSLGDSDGKHETVNQEEKSGPGASGGSSGDPDGFFNSK", "values": [
      {"measurement": "P19 attachment to fibronectin", "setting": "[1]", "result": "modest effect to decrease"},
      {"measurement": "endothelial cell attachment, plates pre-coated using standard procedures", "setting": "[2]; alone or in the presence of fibrinogen, no nitrocellulose", "result": "did not promote cell attachment"},
      {"measurement": "cell attachment at densities higher than 300 ng/cm^2", "setting": "[2]; [4]", "result": "sharp decline"},
      {"measurement": "coating density evoking maximal cell attachment", "setting": "[2]; [4]", "result": 300, "unit": "ng/cm^2"},
      {"measurement": "endothelial attachment, ligand adsorbed to nitrocellulose-coated surfaces", "setting": "[2]; non-denaturing conditions, with fibrinogen, compared with Fc control human IgG1", "result": "promoted endothelial attachment"},
      {"measurement": "EphB1 receptor activation at densities greater than 300 ng/cm^2", "setting": "[3]", "result": "did not show a decrement"},
      {"measurement": "adsorption densities stimulating EphB1 receptor activation", "setting": "[3]; phosphotyrosine immunoblot", "result": "greater than 100 ng/cm^2"}
    ]}
  ]
}
